Measured values published in PMC8048298.

Columns and labels:
[1] = molecular target: GST-SMARCA4-F4 (aa1009-1314) (human) (UniProt P51532); test: ITC; peptide 1 mM in the syringe, protein 100 μM in the cell; 19 injections of 2 μl; PBS; 25 °C; MicroCal ITC-200
[2] = molecular target: GST-SMARCA4-F4 (aa1009-1314) (human) (UniProt P51532); test: MST; SMARCA4 protein labelled with NT-647-NHS at 100 nM; peptides 10 nM to 500 μM; PBS pH 7.4, 0.05% Tween-20; 5 min incubation; Monolith NT.115; one-site binding (Kd formula)
[3] = molecular target: Flag-tagged SMARCA4 purified from HCT116 cells (human) (UniProt P51532); test: as above

## histone H4 N-terminal 20 amino acid peptide, Arg3 asymmetrically dimethylated (H4R3me2a), C-terminal biotin (from UniProt P62805 2-21)
[1]
  Kd: 2.41 µM
[2]
  Kd: 5.36 µM
[3]
  Kd: 6.27 µM
